In paper PMC12828418, “Structural analyses and substrate profiling of PPEP-3 provide new insights into the molecular basis of Pro-Pro endopeptidase specificity” (iScience, 2025):

Molecular target: T1, PPEP-3 E154A/Y190F (proteolytically inactive double mutant of Pro-Pro endopeptidase 3 from Geobacillus … (Geobacillus thermodenitrificans strain …, UniProt A4INY2 27-235, E154A | Y190F))
T1 construct: codon optimised for E. coli, cloned in pET28a via NdeI/XhoI; Zinc metalloprotease; for the substrate complex the catalytic Zn2+ was partly removed with EDTA and ortho-phenanthroline (occupancy about 40-50%); Surmise: pET28a with NdeI/XhoI adds an N-terminal His6 tag with a thrombin site; no cleavage of the tag is described, and 381 uM = 10 mg/mL (about 26 kDa) fits a kept tag; source: E. coli …
T1 sequence (looked up): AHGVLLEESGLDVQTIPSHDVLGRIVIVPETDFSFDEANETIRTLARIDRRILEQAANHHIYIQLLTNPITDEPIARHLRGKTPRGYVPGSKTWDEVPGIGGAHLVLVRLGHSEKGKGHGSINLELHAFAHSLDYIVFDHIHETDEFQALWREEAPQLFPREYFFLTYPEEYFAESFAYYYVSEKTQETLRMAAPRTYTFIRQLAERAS
Assay: crystal structure; co-crystal of the Zn2+-depleted (EDTA and ortho-phenanthroline) double mutant with the substrate peptide; sitting drop vapour diffusion, Morpheus E9, 0.1 M bicine/Trizma base pH 8.5; 2.02 Å, space group P212121, four monomers in the ASU
Details: both partners purified

B1: Ac-EPLPPPP-NH2 substrate peptide (peptide)
peptide: Ac-EPLPPPP-NH2
notes: synthetic substrate peptide of PPEP-3; P3-P3' are PLPPPP, cleavage between P1 and P1' prolines; also called PLPPPP (P3-P3'); source: synthetic peptide
B1: binds.
